For the assay, the target named is yAsf1*^532 (full-length yeast Asf1, residues 1 to 279, labeled at position -1 with Alexa Fluor 532) (S. cerevisiae) (UniProt P32447). The experiment in a line: other fluorescence titration; fluorescence quenching: unlabeled histones titrated into 1 nM yAsf1*^532; 20°C; 150 mM KCl, 2 mM MgCl2, 10 mM Tris-HCl pH 7.5, 1% glycerol, 0.05% Brij-35, 0.5 mM TCEP; ligand-depleted binding model.

By Kd is commonly meant the equilibrium constant for the complex coming apart. On to “H3/H4^∆94 (Xenopus laevis, H3 C110A and H4 T71C Δ94-102) (from UniProt P84233 1-136; P62799 1-94) (complex)”, for which the Kd is 0.4 nM.

The values above are taken from PMC3439350.
